Experimental data from paper PMC7943567 (2021).

Experiments:
[1] = molecular target: UG2 fusion of the MET-binding peptide aMD4 (human); experiment: SPR
[2] = molecular target: UG2 fusion of the MET-binding peptide aMD5 (human); experiment: SPR
aMD4 (free peptide) = experiment: SPR; value cited from earlier paper
aMD5 (free peptide) = experiment: SPR; value cited from earlier paper
[3] = molecular target: Fc proteins lasso-grafted with MET-binding peptides (SPR, Fig. 1c); experiment: SPR; aMD4 grafted on Fc; divalent, not true 1:1 affinity
[4] = molecular target: T1, Fc proteins lasso-grafted with PlxnB1-binding peptides (SPR, Fig. 1c); experiment: SPR; PB1m6A9 grafted on Fc; divalent, not true 1:1 affinity
[5] = molecular target: T1, Fc proteins lasso-grafted with …; experiment: SPR; PB1m7 grafted on Fc; divalent, not true 1:1 affinity
[6] = molecular target: UG2-m6, single-chain tandem uteroglobin dimer with the PB1m6 peptide fused between two UG monomers (human, UniProt P11684); experiment: SPR
[7] = molecular target: UG2 fusion of the PlxnB1-binding peptide PB1m7 (human); experiment: SPR
[8] = molecular target: UG2-m6A9, single-chain tandem uteroglobin dimer grafted with the affinity-matured m6A9 peptide (human, UniProt P11684); experiment: SPR
PB1m6A9 (free peptide) = experiment: SPR; value cited from earlier paper
PB1m7 (free peptide) = experiment: SPR; value cited from earlier paper

B1: human MET ectodomain fragment (residues 1-931) with C-terminal biotin acceptor sequence (domain or fragment)
chain: ECKEALAKSEMNVNMKYQLPNFTAETPIQNVILHEHHIFLGATNYIYVLNEEDLQKVAEYKTGPVLEHPDCFPCQDCSSKANLSGGVWKDNINMALVVDTYYDDQLISCGSVNRGTCQRHVFPHNHTADIQSEVHCIFSPQIEEPSQCPDCVVSALGAKVLSSVKDRFINFFVGNTINSSYFPDHPLHSISVRRLKETKDGFMFLTDQSYIDVLPEFRDSYPIKYVHAFESNNFIYFLTVQRETLDAQTFHTRIIRFCSINSGLHSYMEMPLECILTEKRKKRSTKKEVFNILQAAYVSKPGAQLARQIGASLNDDILFGVFAQSKPDSAEPMDRSAMCAFPIKYVNDFFNKIVNKNNVRCLQHFYGPNHEHCFNRTLLRNSSGCEARRDEYRTEFTTALQRVDLFMGQFSEVLLTSISTFIKGDLTIANLGTSEGRFMQVVVSRSGPSTPHVNFLLDSHPVSPEVIVEHTLNQNGYTLVITGKKITKIPLNGLGCRHFQSCSQCLSAPPFVQCGWCHDKCVRSEECLSGTWTQQICLPAIYKVFPNSAPLEGGTRLTICGWDFGFRRNNKFDLKKTRVLLGNESCTLTLSESTMNTLKCTVGPAMNKHFNMSIIISNGHGTTQYSTFSYVDPVITSISPKYGPMAGGTLLTLTGNYLNSGNSRHISIGGKTCTLKSVSNSILECYTPAQTISTEFAVKLKIDLANRETSIFSYREDPIVYEIHPTKSFISGGSTITGVGKNLNSVSVPRMVINVHEAGRNFTVACQHRSNSEIICCTTPSLQQLNLQLPLKTKAFFMLDGILSKYFDLIYVHNPVFKPFEKPVMISMGNENVLEIKGNDIDPEAVKGEVLKVGNKSCENIHLHSEAVLCTVPNDLLKLNSELNIEWKQAISSTVLGKVIVQPDQNF
modifications: biotin on the biotin acceptor sequence (BirA-mediated)
- Kd [1]: 91.6 nM
- koff [1]: 0.004 s⁻¹
- Kd [2]: 211 nM
- koff [2]: 0.019 s⁻¹
- Kd (aMD4 (free peptide)): 2.4 nM
- koff (aMD4 (free peptide)): 0.003 s⁻¹
- Kd (aMD5 (free peptide)): 2.3 nM
- koff (aMD5 (free peptide)): 0.011 s⁻¹
- Kd [3]: 4.5 nM
- koff [3]: 0.0007 s⁻¹

B2: human PlxnB1 ectodomain fragment (residues 1-535) with C-terminal biotin acceptor sequence (domain or fragment)
chain: LQPLPPTAFTPNGTYLQHLARDPTSGTLYLGATNFLFQLSPGLQLEATVSTGPVLDSRDCLPPVMPDECPQAQPTNNPNQLLLVSPGALVVCGSVHQGVCEQRRLGQLEQLLLRPERPGDTQYVAANDPAVSTVGLVAQGLAGEPLLFVGRGYTSRGVGGGIPPITTRALWPPDPQAAFSYEETAKLAVGRLSEYSHHFVSAFARGASAYFLFLRRDLQAQSRAFRAYVSRVCLRDQHYYSYVELPLACEGGRYGLIQAAAVATSREVAHGEVLFAAFSSAAPPTVGRPPSAAAGASGASALCAFPLDEVDRLANRTRDACYTREGRAEDGTEVAYIEYDVNSDCAQLPVDTLDAYPCGSDHTPSPMASRVPLEATPILEWPGIQLTAVAVTMEDGHTIAFLGDSQGQLHRVYLGPGSDGHPYSTQSIQQGSAVSRDLTFDGTFEHLYVMTQSTLLKVPVASCAQHLDCASCLAHRDPYCGWCVLLGRCSRRSECSRGQGPEQWLWSFQPELGCLQ
modifications: biotin on the biotin acceptor sequence (BirA-mediated)
- Kd [4]: 0.023 nM
- koff [4]: 0.0004 s⁻¹
- Kd [5]: 61.4 nM
- koff [5]: 0.055 s⁻¹
- Kd [6]: 45.8 nM
- koff [6]: 0.0041 s⁻¹
- Kd [7]: 3250 nM
- koff [7]: 0.051 s⁻¹
- Kd [8]: 8.26 nM
- koff [8]: 0.0014 s⁻¹
- Kd (PB1m6A9 (free peptide)): 0.28 nM
- koff (PB1m6A9 (free peptide)): 0.0021 s⁻¹
- Kd (PB1m7 (free peptide)): 275 nM
- koff (PB1m7 (free peptide)): 0.01 s⁻¹
